# Results as given in patent publication US20250270341A1 (Alector, published 2025).
# T1: human CD98hc endogenously expressed on HCMEC/D3 cells (human)
# T1 construct: human brain endothelial cell line
# T1 chain: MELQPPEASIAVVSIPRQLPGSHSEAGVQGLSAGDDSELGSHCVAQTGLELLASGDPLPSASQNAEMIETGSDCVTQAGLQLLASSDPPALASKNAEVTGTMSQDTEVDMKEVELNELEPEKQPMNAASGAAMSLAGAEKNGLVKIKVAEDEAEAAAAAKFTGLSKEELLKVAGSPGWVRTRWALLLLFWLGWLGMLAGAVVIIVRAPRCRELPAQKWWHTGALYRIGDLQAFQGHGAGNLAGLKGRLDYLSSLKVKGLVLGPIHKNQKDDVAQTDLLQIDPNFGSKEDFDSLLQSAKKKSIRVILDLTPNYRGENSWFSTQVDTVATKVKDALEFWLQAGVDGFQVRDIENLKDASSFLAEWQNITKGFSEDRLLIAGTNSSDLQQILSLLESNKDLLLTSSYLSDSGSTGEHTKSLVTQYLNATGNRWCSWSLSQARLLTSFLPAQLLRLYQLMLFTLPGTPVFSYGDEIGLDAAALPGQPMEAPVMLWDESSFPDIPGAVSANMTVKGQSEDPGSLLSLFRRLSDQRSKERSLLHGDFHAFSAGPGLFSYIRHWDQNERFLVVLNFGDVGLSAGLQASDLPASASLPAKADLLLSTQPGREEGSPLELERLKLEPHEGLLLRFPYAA
# T2: Full length human CD98hc on CHO cells (human)
# T2 construct: CHO cells stably overexpressing it; also called CHO-human CD98hc; CHO-huCD98hc
# T2 chain: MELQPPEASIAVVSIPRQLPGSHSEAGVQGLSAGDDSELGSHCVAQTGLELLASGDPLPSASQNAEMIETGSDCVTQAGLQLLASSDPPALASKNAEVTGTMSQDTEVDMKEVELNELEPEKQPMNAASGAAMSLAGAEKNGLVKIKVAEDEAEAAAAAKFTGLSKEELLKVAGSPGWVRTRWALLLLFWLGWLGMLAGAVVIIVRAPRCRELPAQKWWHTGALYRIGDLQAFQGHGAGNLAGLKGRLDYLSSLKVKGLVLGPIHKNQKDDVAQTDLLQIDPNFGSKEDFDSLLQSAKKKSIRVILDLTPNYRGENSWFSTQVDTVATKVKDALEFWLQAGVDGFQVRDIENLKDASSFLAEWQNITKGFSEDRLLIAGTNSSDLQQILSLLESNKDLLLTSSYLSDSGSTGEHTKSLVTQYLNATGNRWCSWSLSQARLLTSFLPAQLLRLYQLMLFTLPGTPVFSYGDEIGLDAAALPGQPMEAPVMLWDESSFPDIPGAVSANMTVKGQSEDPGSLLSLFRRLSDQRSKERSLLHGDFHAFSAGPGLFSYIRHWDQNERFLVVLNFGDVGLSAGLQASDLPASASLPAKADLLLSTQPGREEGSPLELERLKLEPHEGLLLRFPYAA
# T3: Full length mouse CD98hc on CHO cells (mouse, UniProt P10852 1-526)
# T3 construct: CHO cells stably overexpressing it; also called CHO-mouse CD98hc; CHO-mCD98hc
# T3 sequence: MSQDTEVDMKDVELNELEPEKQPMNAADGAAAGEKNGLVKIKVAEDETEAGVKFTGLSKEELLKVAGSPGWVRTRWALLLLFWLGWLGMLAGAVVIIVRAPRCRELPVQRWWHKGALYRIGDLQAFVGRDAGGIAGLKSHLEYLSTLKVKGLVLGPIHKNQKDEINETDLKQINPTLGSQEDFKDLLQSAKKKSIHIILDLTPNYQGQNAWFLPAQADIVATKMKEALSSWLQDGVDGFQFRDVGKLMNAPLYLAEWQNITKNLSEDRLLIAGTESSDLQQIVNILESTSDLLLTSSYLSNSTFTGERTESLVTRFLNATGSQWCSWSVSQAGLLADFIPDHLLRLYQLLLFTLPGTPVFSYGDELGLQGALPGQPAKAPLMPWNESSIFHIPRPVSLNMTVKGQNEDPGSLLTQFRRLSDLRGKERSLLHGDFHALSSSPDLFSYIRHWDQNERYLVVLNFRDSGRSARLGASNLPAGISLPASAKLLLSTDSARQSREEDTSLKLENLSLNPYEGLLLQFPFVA
# T4: Cyno CD98hc ECD Avi-His (cynomolgus macaque, UniProt P08195 105-529 (human entry))
# T4 construct: biotinylated on the Avi tag where captured on streptavidin; also called Cyno CD98-AVI-His; Cyno CD98hc-AVI-His
# T4 chain: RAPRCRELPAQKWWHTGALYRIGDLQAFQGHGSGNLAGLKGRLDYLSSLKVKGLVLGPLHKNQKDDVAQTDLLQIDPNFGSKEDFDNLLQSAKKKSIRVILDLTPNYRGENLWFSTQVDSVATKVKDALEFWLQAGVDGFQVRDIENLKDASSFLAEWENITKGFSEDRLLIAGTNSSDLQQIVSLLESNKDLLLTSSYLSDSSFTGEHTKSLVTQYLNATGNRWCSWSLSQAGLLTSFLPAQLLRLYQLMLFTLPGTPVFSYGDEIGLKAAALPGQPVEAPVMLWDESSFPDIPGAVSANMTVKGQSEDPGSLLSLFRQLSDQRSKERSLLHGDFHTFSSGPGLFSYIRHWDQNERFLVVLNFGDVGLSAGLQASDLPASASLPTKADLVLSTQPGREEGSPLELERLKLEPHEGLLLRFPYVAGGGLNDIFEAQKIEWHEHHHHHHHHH
# How the values were obtained:
# [1] = biological target: T1, human CD98hc endogenously expressed on …; assay: FACS, hybridoma supernatant
# [2] = biological target: T2, Full length human CD98hc on CHO cells; assay: FACS, hybridoma supernatant
# [3] = biological target: T3, Full length mouse CD98hc on CHO cells; assay: FACS, hybridoma supernatant
# [4] = biological target: T4, Cyno CD98hc ECD Avi-His; assay: ELISA, hybridoma supernatant
# Protocol: (§1) Briefly, 96-well polystyrene plates were coated with 5 μg/ml of streptavidin (Thermo Fisher, Cat #PI21125) in coating buffer (0.05M carbonate buffer, pH 9.6, Sigma, Cat #C3041) overnight at 4° C. Coated plates were then blocked with ELISA diluent (PBS+0.5% BSA+0.05% Tween20) for one hour. Blocking buffer was removed and human, cyno, or mouse Avi-His-tagged CD98hc and Avi-His-tagged human TfR polypeptides were added at 1 μg/ml in ELISA diluent and captured for 1 hour at room temperature. After washing three times with 300 μl of PBST (PBS+0.05% Tween20, Thermo 28352), the hybridoma cell culture supernatants or 1 μg/ml of commercially available purified mouse anti-human CD98hc monoclonal antibody (Sigma Aldrich, Cat #SAB 4700503) and rat anti-mouse CD98hc antibody (Bio-Rad Laboratories, Hercules, CA, Cat #MCA2684) were added (50 μl/well) to each well. After 30 minutes of incubation at room temperature, the plates were washed three times with 300 μl of PBST. […] After a final set of washes (3×300 μl in PBST), 50 μl/well of BioFx TMB substrate (Surmodics, Eden Praire, MN, Cat #TMBW-1000-01) was added to the wells. The reaction was then quenched after 5-10 mins with 50 μl/well of 2N sulfuric acid. The plates were read for absorbance at 450 nm on a SpectraMax M5 (Molecular Devices, Sunnyvale, CA) using SoftMax Pro software.
# [5] = biological target: T5, Human TfR-AVI-His (control) (human, UniProt P02786 89-760); assay: ELISA, hybridoma supernatant
# T5 construct: control protein; also called Avi-His-tagged human TfR; human transferrin receptor
# T5 sequence (P02786 89-760 limits assumed): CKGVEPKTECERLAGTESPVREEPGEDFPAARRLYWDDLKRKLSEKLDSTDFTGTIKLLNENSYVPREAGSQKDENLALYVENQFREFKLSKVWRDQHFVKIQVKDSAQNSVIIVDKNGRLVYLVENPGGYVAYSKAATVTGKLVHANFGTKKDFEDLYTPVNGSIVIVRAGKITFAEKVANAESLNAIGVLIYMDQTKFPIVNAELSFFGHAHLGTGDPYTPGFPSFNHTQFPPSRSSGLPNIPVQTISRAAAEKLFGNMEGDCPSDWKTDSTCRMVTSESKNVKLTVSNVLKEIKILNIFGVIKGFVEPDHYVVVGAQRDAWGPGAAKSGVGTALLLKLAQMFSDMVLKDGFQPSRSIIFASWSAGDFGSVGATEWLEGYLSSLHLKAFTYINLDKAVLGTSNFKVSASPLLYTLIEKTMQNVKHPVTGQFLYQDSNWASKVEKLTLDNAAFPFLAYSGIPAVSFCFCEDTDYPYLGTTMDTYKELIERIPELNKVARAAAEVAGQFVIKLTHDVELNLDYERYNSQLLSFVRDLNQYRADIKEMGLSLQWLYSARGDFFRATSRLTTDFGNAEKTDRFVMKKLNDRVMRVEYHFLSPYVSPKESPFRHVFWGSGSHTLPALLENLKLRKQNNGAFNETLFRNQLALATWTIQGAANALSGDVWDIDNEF
# Protocol: as §1
MFI ratio over secondary antibody [1],MFI ratio over secondary antibody [2],MFI ratio over secondary antibody [3],OD450 [4],OD450 [5],Binder
91.8,25.1,1.3,1.63,0.0561,"CD98HC.04.062 (antibody, V domains shown, hybridoma IgG) VH: EVQLVESGGDLVKPGGSLKLSCTASRFAFSTYDMSWVRQTPEKRLEWVAYISSGGGSTYFPDTVKGRFTISRDNAKNTLYLQMSSLKSEDTAMYYCARQDGHYPWFPYWGQGTLVTVSA VL: DIVMSQSPSSLAVSVGEKVTMSCKSSQSLLYSGNQKTYLAWYQQKPGQSPKPLIYWASTRESGIPDRFTGSGSGTDFTLTISSVKAEDLAVYYCQQYYSYPPTFGAGTKLELK"
158,33,1.2,1.73,0.0976,"CD98HC.04.058 (antibody, V domains shown, hybridoma IgG) VH: QVQLQQSGAELVRPGVSVKISCKASGYTFTDHTMHWVKQSHARSLEWIGVISTYFGDASYNPKFKGKATMTVDKSSNTAYMELARLTSEDSAIYYCARVGGRLRLGYYFDYWGQGTTLTVSS VL: NIMMTQSPSSLAVSAGEKVTMNCKSSQTVLYSSNQKNYLAWYQQKPGQSPKLLIYWASTRESGVPDRFTGSGSGTDFTLTISSVQVEDLAVYYCHQYLSSYTFGGGTKLEIK"
102,16.6,1.1,1.89,0.0533,"CD98HC.04.022 (antibody, V domains shown, hybridoma IgG) VH: EVQLQQSGAELVKPGASVKLSCTASGFNIKDTFMHWMKQRPEQGLEWIGRIDPANANTRYDPKFQGKATITTDTSSNTAYLQLSSLTSEDTAVYYCARDVYYDVWGAGTTVTVSS VL: DILMTQSPSSMSVSLGDTVTITCHASQGISSNIGWLQQKPGRSFKGLIYHGSNLEDGVPSRFTGSGSGTDYSLTISGLESEDFADYYCVQYAQFPRTFGGGTKLEIQ"
147,27.7,1.2,1.88,0.0719,"CD98HC.04.046 (antibody, V domains shown, hybridoma IgG) VH: QIQLVQSGPVLKKPGETVKISCKASGYTFTNFGMNWVKQAPGKGLKWMGWIDTYTREPTYVDDFKGRFAFSLETSVTTAYLQINDLKNEDSATYFCARGESHWYFDVWGAGTTVTVSS VL: QIVLTQSPAIMSASLGERVTMTCIVSSSVSSSYLYWYQQKPGSSPKLWIYSTSILASGVPGRFSGSGSGTSYSLTISSMEAEDAATYYCHQYHRSPPTFGGGTKLEIK"
189,34.4,1,1.4,0.0905,"CD98HC.03.004 (antibody, V domains shown, hybridoma IgG) VH: DVQLQESGPGLVKPSQSLSLTCTVTGYSITNNYAWNWIRRFPGNKLEWMAYISYSGYTSYNPSLKSRISITRDTSKNQFFLQLNSVTTEDTATYYCTGYFYYYGGGSFDYWGQGTTLTVSS VL: QAVVTQESALTTSPGETVTLTCRSSTGAVTTSNFANWVQEKPDHLFTGLIRGSNNRAPGVPARFSGSLIGDKAALTITGARTEDEAIYFCALWYSDHWVFGGGTKLTVL"
124,34.4,1.2,1.91,0.0629,"CD98HC.04.063 (antibody, V domains shown, hybridoma IgG) VH: EVKLEESGGGLVQPGGSMILSCVASGFTFSNSWMNWVRQSPEKGLEWVAEIRLRSNNYATHYAESVKGRFTISRDDSKSTVYLQMNNLRAEDTGIYYCSRGDPGAYWGQGTLVTVSA VL: DIQMTQSSSYLSVSLGNRVTITCKASDHIKNWLAWFQQKPGNAPRLLISGATILETGVPSRFSGSGSGKDYTLSITSLQTEDVATYYCQQYWSTPYTFGGGTKLEIK"
190,25.8,1,1.77,0.0588,"CD98HC.03.010 (antibody, V domains shown, hybridoma IgG) VH: EVQLQQSGTELVKPGASVKLSCTASGLDIKDTYLHWVKQRPEQGLEWIGKIDPANGNTKYNPKFQGKATITADTSSNTAYLQLSSLTSEDTAVHYCTTPYYSGSSYGDYWGQGTTLTVSS VL: QIVLTQSPAIMSASPGEKVTLTCSASSSVSSSYLYWYQQKPGSSPKLWIYSTSNLASGVPARFSGSGSGTSYSLTISSMEAEDAASYFCHQWSRYPLTFGAGTKLELK"
277,46.6,1.2,1.76,0.0639,"CD98HC.04.064 (antibody, V domains shown, hybridoma IgG) VH: QVQLQQPGAELVRPGASVKLSCKASGYTFTSYWMNWVRQRPGQGLEWIGLIDPSDSETHYNQMFKDRATLTVDKSSSTAYMQLSSLTSADPAVYYCARASYGKGYFDYWGQGTTLTVSS VL: not shown"
4,2.4,1.2,1.34,0.103,"CD98HC.04.045 (antibody, V domains shown, hybridoma IgG) VH: QIQLVQSGPELKKPGETVKISCKASGYSITNFGMNWVKQAPGKGLKWMGWVNTYTGEPTYADDFKGRFAFSLETSASTASLQINNLKNEDTATYFCTRSVITYTMDYWGQGTSVTVSS VL: DIQLTQSPSSLSASLGERVSLTCRASQEISGYLSWLQQKPDGTIKRLIYAASTLDSGVPKRFSGSRSGSDYSLTISSLESEDFADYYCLQYASYPRTFGGGTKVEIK"
